Test results taken from article PMC10352132 (Nature Structural & Molecular Biology, 2023).

Molecular target: wild-type Rattus norvegicus GABA transporter 1 (rGAT1WT) (Rattus norvegicus, UniProt P23978)
Conditions: one partner purified

B1: Fab 9D5 (Fab, V domains shown)
VH: EVQLVESGGGLVKPGGSLKLSCAASGFTFSSYAMSWVRQSPEKRLEWVAEISSGGRYIYYSDTVTGRFTISRDNARNILHLEMSSLRSEDTAMYYCARGEVRQRGFDYWGQGTTLTVSS
VL: ENVLTQSPAIMSTSPGEKVTMTCRASSSVGSSYLHWYQQKSGASPKLWIYSTSNLASGVPARFSGSGSGTSYSLTISSVEAEDAATYYCQQFSGYPLTFGSGTKLEMK
notes: heavy chain of Fab 9D5; light chain of Fab 9D5; Heavy and light chains were synthesized and cloned into pFastBac Dual with an N-terminal GP64 signal peptide; Only VH and VL are modeled in PDB 8GNK; also called 9D5 Fab; 9D5-Fab; source: Sf9 cells, baculovirus, exported into the media; purified (Ni-NTA, SEC on Superdex 75)
B1: no binding (tested: 50 ng of 9D5).
